Test results reported in patent US20200261603A1 (Astellas, published 2020).

How the values were obtained:
[1] = target: T1, human cancer-specific MUC1 (human, UniProt P15941 24-1255, cancer-specific incomplete O-glycosylation (T, Tn, 2,3ST) of threonine at position 9 of the 20-amino acid tandem repeat … (SEQ ID NO: 15), as the background describes it); assay: Cell ELISA on formalin-fixed T-47D cells, HRP anti-human Igκ, luminescence
T1 construct: whole, on cells; also called Mucin 1; human MUC1

[2] = target: T1, human cancer-specific MUC1; assay: immunostaining of a human bladder cancer tissue array, 0.25 µg/mL primary antibody, Polymer-HRP/DAB

Binder	fold binding activity compared to 1B2 Fab [1]	other results
P10-2 Fab (Fab, V domains shown, heavy chain N-terminal glutamine was modified into pyroglutamic acid in a great majority of purified antibodies, expressed in Expi293F cells; also called anti-human MUC1 antibody Fab fragment P10-2) VH: QVQLVQSGAEVKKPGASVKVSCKASGYTFTNYGLSWVRQAPGQGLEWMGENHPGSGIIYHNEKFRGRVTLTADRSTSTAYMELSSLRSEDTAVYYCARSSGTRGFDYWGQGTLVTVSS VL: DVVMTQTPLSLSVTPGQPASISCRSSQSIVHSNGNTYLEWYLQKPGQSPQLLIYRVSNRFSGVPDRFSGSGSGTDFTLKISRVEAEDVGVYYCFQGSHGPWTFGQGTKLEIKR	≥ 10 times (vs 1B2 Fab)	
mouse chimeric P10-2 IgG (antibody, V domains shown, Antibody in which the VH and VL domains of P10-2 Fab were fused with mouse IgG2a CH1 to CH3 domains and a mouse κ chain CL domain; not shown: mouse IgG2a CH1 to CH3 domains; mouse κ chain CL domain) VH: QVQLVQSGAEVKKPGASVKVSCKASGYTFTNYGLSWVRQAPGQGLEWMGENHPGSGIIYHNEKFRGRVTLTADRSTSTAYMELSSLRSEDTAVYYCARSSGTRGFDYWGQGTLVTVSS VL: DVVMTQTPLSLSVTPGQPASISCRSSQSIVHSNGNTYLEWYLQKPGQSPQLLIYRVSNRFSGVPDRFSGSGSGTDFTLKISRVEAEDVGVYYCFQGSHGPWTFGQGTKLEIKR		binding result [2]: binds
P10-1 Fab Dye (Fab, V domains shown, IRDye800CW (NHS ester) on Lys of the Fab fragment; number and positions not stated, also called IRDye800CW-labeled P10-1 Fab) VH: QVQLVQSGAEVKKPGASVKVSCKASGYTFTNYGLSWVRQAPGQGLEWMGENHPGSGIIYHNEKFRGRVTLTADRSTSTAYMELSSLRSEDTAVYYCARSSGTRGFAYWGQGTLVTVSS VL: DVVMTQTPLSLSVTPGQPASISCRSSQSIVHSNGNTYLEWYLQKPGQSPQLLIYRVSNRFSGVPDRFSGSGSGTDFTLKISRVEAEDVGVYYCFQGSHGPWTFGQGTKLEIKR		binding result [1]: binds
P10-1 Fab (Fab, V domains shown, expressed in Expi293F cells; also called anti-human MUC1 antibody Fab fragment P10-1) VH: QVQLVQSGAEVKKPGASVKVSCKASGYTFTNYGLSWVRQAPGQGLEWMGENHPGSGIIYHNEKFRGRVTLTADRSTSTAYMELSSLRSEDTAVYYCARSSGTRGFAYWGQGTLVTVSS VL: DVVMTQTPLSLSVTPGQPASISCRSSQSIVHSNGNTYLEWYLQKPGQSPQLLIYRVSNRFSGVPDRFSGSGSGTDFTLKISRVEAEDVGVYYCFQGSHGPWTFGQGTKLEIKR	≥ 10 times (vs 1B2 Fab)	
